B1: heparin-binding EGF-like growth factor (protein)
chain: DLQEADLDLLRVTLSSKPQALATPNKEEHGKRKKKGKGLGKKRDPCLRKYKDFCIHGECKYVKELRAPSCICHPGYHGERCHGLSL
B2: EGF: EGFR-ligand cited as stimulating ADAM17 (protein, UniProt P01133 23-1207, looked up)
Pro-epidermal growth factor: PQHWSCPEGTLAGNGNSTCVGPAPFLIFSHGNSIFRIDTEGTNYEQLVVDAGVSVIMDFHYNEKRIYWVDLERQLLQRVFLNGSRQERVCNIEKNVSGMAINWINEEVIWSNQQEGIITVTDMKGNNSHILLSALKYPANVAVDPVERFIFWSSEVAGSLYRADLDGVGVKALLETSEKITAVSLDVLDKRLFWIQYNREGSNSLICSCDYDGGSVHISKHPTQHNLFAMSLFGDRIFYSTWKMKTIWIANKHTGKDMVRINLHSSFVPLGELKVVHPLAQPKAEDDTWEPEQKLCKLRKGNCSSTVCGQDLQSHLCMCAEGYALSRDRKYCEDVNECAFWNHGCTLGCKNTPGSYYCTCPVGFVLLPDGKRCHQLVSCPRNVSECSHDCVLTSEGPLCFCPEGSVLERDGKTCSGCSSPDNGGCSQLCVPLSPVSWECDCFPGYDLQLDEKSCAASGPQPFLLFANSQDIRHMHFDGTDYGTLLSQQMGMVYALDHDPVENKIYFAHTALKWIERANMDGSQRERLIEEGVDVPEGLAVDWIGRRFYWTDRGKSLIGRSDLNGKRSKIITKENISQPRGIAVHPMAKRLFWTDTGINPRIESSSLQGLGRLVIASSDLIWPSGITIDFLTDKLYWCDAKQSVIEMANLDGSKRRRLTQNDVGHPFAVAVFEDYVWFSDWAMPSVMRVNKRTGKDRVRLQGSMLKPSSLVVVHPLAKPGADPCLYQNGGCEHICKKRLGTAWCSCREGFMKASDGKTCLALDGHQLLAGGEVDLKNQVTPLDILSKTRVSEDNITESQHMLVAEIMVSDQDDCAPVGCSMYARCISEGEDATCQCLKGFAGDGKLCSDIDECEMGVPVCPPASSKCINTEGGYVCRCSEGYQGDGIHCLDIDECQLGEHSCGENASCTNTEGGYTCMCAGRLSEPGLICPDSTPPPHLREDDHHYSVRNSDSECPLSHDGYCLHDGVCMYIEALDKYACNCVVGYIGERCQYRDLKWWELRHAGHGQQQKVIVVAVCVVVLVMLLLLSLWGAHYYRTQKLLSKNPKNPYEESSRDVRSRRPADTEDGMSSCPQPWFVVIKEHQDLKNGGQPVAGEDGQAADGSMQPTSWRQEPQLCGMGTEQGCWIPVSSDKGSCPQVMERSFHMPSYGTQTLEGGVEKPHSLLSANPLWQQRALDPPHQMELTQ
modifications: Pro-epidermal growth factor
notes: EGFR-ligand cited as stimulating ADAM17

Assays:
MRL-Faslpr mice = experiment: Multi-day UVR lesion development in MRL-Faslpr SLE model mice with topical treatment; type: in vivo, mouse
Protocol: FIGS. 8A-8C. Topical EGFR ligand reduces photosensitivity. (8A) Experimental scheme for (B-C) (n=4 mice). MRL-Faslpr mice ears and back skin were topically treated with HB-EGF for 2 days before and on the first day of UVR exposure and examined 24 hours after the final exposure. Ears were treated with Control plus vehicle, UVR plus vehicle, UVR+ HB-EGF and MRL-MpJ UVR+ vehicle. The MRL-MpJ ear represents a non-SLE control. (8C) Graph of ear histopathology scores. (8C) Graph of absolute monocyte numbers. Data are from 3 independent experiments. Bars represent means.
FIGS. 18A-18B. EGFR ligand application reduces the severity of UVR-induced skin lesions and lymph node B cell responses in SLE model mice. Mice were treated with HB-EGF (n=4 mice). Lesional areas are seen in magnified images of back lesions (not shown). Neutrophil-dominant infiltrate and ulceration are seen in H&E images of ear skin (not shown). (18A, 18B) Germinal center B cell (18A) and plasma cell (18B) numbers in skin draining lymph nodes (auricular and inguinal) normalized to mice treated with UVR+ vehicle. Each symbol represents either inguinal or auricular lymph nodes from multiple mice. Data from 2 independent experiments. Bars represent means.
The remaining hair on the back skin of the mice was removed using Nair and photographs were taken. The total back area and lesional area (skin affected by erythema, scaliness, crustiness, or epidermal erosion) was measured by a blinded observer using ImageJ software and skin lesions were quantified as percent of back area.
Skin histopathology scoring: A blinded expert dermatopathologist scored H&E stained sections based on dermal inflammation (0-3).

LC-Ad17 mice = experiment: UVR-induced keratinocyte apoptosis and monocyte numbers in ears of LC-Ad17 mice; type: in vivo, mouse; conditions: applied on ears prior to UVR, 24 hours
Protocol: FIGS. 5A-5H. LC-derived ADAM17 limits UVR-induced keratinocyte apoptosis and skin injury. (5A-5D) Graphs showing WT and LC-Ad17 mice were treated with UVR and analyzed at indicated time points. (5A) Graph showing activated caspase-3+ keratinocytes (n=3-5 mice). […] (5C) Graph showing epidermal thickness (n=3-4 mice). (5D) Graph showing quantification of epidermal permeability (n=3-5 mice). (5E,5F) Vehicle or HB-EGF was applied on the ears prior to UVR exposure (n=3-4 mice). (5E) Graph showing activated caspase-3+ keratinocytes. (5F) Graphs showing absolute (left) and normalized (right) monocyte numbers. (5G,5H) Effect of LC Adam17 deletion or ADAM17 blockade on keratinocyte survival in vitro. Murine keratinocytes with LCs from indicated mice (5G) and human keratinocytes with control-IgG or anti-ADAM17-treated LCs (5H) were exposed to UVR and examined at 24 hours (n=3 mice or 4 human donors). Data are from 3 (5E-5G), 4 (5A), 2 (5H), 5 (5B), and 1 (5C,5D) independent experiments. Bars represent means (5A,5B,5D-H) or medians (5C).

Langerin-DTA mice = experiment: UVR-induced keratinocyte apoptosis and monocyte accumulation in ears of Langerin-DTA mice; conditions: 2 ug per ear 15 minutes prior to UVR, 24 hours after UVR
Protocol: (3C,3D) Mouse ears were treated with vehicle or HB-EGF prior to UVR and examined 24 hours after UVR (n=3-4 mice). (3C) Graph of activated caspase-3+ keratinocytes. (3D) Graph of absolute (left) and normalized (right) monocyte numbers. […] Bars represent means. Error bars depict standard deviations.
For indicated 24 hour experiments, HB-EGF (2 ug; R&D Systems) dissolved in dimethyl sulfoxide (DMSO) was applied to each ear 15 minutes prior to UVR exposure.
For immunofluorescence staining of murine skin, frozen unfixed mouse skin was sectioned, fixed with cold acetone for 10 minutes, and stained as indicated (15). Epidermal activated caspase-3+ cells per high powered field (40× magnification) were quantified by a blinded observer using ImageJ software (NIH) and classified as activated caspase-3+ keratinocytes (Langerin− and CD3−), LCs (Langerin+), or T cells (CD3+).

ADAM17 = conditions: mouse embryonic fibroblasts; cited from earlier work
[1] = MRL-Faslpr mice, topical, multi-day UVR
[2] = MRL/lpr lupus model, topical application

Molecule	severity of UVR-induced skin lesions (MRL-Faslpr mice; MRL-Faslpr mice, topical on ears and back for three consecutive days, 6 days UVR)	germinal center B cells in skin-draining lymph nodes (MRL-Faslpr mice; [1])	plasma cells in skin-draining lymph nodes (MRL-Faslpr mice; [1])	monocyte accumulation (MRL-Faslpr mice; MRL-Faslpr mice, topical, multi-day UVR, 24 hours after final exposure)	photosensitivity (MRL-Faslpr mice; [2])	skin-draining lymph node (B cell) responses (MRL-Faslpr mice; [2])	skin-draining lymph node (B cell) responses (MRL-Faslpr mice; MRL/lpr lupus model, topical application, listed as Hb-EGF)	UVR-induced skin inflammation (monocyte numbers) (LC-Ad17 mice)	increased UVR-induced keratinocyte apoptosis (LC-Ad17 mice)	UVR-induced apoptotic keratinocyte accumulation (Langerin-DTA mice)	UVR-induced monocyte accumulation (Langerin-DTA mice)	ADAM17 activation (ADAM17)
B1	reduced the severity	reduced	reduced	reduced	reduces	reduction	reduces	dampened	dampened	reduced	reduced	
B2												activated

Source: US20220273679A1, “METHODS AND COMPOSITIONS FOR TREATING AND PREVENTING DAMAGE TO SKIN” (New York Society for the Relief of the Ruptured and …, priority 2019, published 2022)
